According to US20090304588A1:

Target: T1, Hyperpolarization-activated cyclic-nucleotide-gated (HCN) ion channel 1 (HCN1)
T1 sequence (O60741 1-890, species assumed, looked up): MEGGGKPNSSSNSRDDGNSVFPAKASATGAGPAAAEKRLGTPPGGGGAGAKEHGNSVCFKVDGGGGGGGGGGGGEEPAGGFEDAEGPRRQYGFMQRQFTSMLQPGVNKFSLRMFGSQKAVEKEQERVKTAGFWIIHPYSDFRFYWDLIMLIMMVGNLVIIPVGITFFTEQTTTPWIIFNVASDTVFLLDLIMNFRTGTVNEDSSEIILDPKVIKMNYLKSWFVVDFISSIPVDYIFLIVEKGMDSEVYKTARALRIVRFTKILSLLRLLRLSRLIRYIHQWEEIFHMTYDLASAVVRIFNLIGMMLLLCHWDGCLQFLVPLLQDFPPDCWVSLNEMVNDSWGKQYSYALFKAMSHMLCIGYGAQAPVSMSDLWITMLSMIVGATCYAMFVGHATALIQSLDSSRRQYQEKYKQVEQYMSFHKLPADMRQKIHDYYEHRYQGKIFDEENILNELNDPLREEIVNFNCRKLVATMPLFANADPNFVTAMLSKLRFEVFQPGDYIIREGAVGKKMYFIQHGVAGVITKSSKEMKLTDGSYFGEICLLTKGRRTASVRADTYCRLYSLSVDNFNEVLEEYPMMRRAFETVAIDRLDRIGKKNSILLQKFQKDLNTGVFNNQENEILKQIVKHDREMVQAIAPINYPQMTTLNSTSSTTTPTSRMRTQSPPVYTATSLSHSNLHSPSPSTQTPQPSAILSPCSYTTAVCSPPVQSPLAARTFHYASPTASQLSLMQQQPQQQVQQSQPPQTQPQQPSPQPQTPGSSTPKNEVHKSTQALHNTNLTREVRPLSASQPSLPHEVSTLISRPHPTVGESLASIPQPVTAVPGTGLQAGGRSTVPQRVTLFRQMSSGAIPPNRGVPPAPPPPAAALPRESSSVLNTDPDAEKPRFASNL
Assay: cell-based or functional assay

- reversal potential of HCN co-transfected with SPC: -22 mV
- reversal potential of the current left after superfusion with Cs to block HCN1 homomultimers: -11.1 mV
Substance: S4TKv1.4GYS (human Kv1.4 with S4 triple mutation R447N, L448A, R453I and pore mutation G528S) (from UniProt P22459 1-653)
